Source: paper PMC9639671 (DNA repair, 2022)
Where a chain is given by its changes, count along the chain named. Names may count otherwise. One block for each binder: values may come before it.

Target: S. cerevisiae Msh2-Msh6 (S. cerevisiae, UniProt P25847 1-964; Q03834 1-1242)
Assay: SPR

S. cerevisiae Msh2-Msh6, sequence (P25847 whole entry, chain 1 of 2): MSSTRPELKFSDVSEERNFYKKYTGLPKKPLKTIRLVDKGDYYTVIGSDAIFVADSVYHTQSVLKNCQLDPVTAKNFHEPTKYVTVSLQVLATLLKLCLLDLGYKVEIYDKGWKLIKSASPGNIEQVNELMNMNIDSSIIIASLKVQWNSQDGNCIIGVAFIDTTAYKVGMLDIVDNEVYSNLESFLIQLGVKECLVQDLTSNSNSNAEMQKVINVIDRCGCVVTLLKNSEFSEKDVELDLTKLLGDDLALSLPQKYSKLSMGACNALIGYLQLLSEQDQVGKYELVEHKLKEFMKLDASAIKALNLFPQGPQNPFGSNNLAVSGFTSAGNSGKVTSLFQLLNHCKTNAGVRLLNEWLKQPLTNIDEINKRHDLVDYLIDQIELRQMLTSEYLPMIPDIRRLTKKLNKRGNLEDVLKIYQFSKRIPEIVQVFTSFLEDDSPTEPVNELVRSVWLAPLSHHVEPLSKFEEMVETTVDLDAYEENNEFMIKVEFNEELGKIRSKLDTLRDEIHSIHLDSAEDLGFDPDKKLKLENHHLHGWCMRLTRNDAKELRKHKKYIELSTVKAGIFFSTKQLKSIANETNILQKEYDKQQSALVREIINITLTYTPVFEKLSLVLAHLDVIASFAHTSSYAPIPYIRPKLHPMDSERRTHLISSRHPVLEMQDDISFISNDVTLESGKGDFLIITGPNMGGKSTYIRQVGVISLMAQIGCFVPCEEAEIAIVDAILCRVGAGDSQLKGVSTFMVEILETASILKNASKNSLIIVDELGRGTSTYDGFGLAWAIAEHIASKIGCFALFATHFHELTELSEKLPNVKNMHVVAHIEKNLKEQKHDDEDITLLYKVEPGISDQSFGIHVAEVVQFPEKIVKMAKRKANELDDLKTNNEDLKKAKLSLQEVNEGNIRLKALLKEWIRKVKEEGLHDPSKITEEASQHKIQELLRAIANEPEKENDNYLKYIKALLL
S. cerevisiae Msh2-Msh6, sequence (Q03834 whole entry, chain 2 of 2): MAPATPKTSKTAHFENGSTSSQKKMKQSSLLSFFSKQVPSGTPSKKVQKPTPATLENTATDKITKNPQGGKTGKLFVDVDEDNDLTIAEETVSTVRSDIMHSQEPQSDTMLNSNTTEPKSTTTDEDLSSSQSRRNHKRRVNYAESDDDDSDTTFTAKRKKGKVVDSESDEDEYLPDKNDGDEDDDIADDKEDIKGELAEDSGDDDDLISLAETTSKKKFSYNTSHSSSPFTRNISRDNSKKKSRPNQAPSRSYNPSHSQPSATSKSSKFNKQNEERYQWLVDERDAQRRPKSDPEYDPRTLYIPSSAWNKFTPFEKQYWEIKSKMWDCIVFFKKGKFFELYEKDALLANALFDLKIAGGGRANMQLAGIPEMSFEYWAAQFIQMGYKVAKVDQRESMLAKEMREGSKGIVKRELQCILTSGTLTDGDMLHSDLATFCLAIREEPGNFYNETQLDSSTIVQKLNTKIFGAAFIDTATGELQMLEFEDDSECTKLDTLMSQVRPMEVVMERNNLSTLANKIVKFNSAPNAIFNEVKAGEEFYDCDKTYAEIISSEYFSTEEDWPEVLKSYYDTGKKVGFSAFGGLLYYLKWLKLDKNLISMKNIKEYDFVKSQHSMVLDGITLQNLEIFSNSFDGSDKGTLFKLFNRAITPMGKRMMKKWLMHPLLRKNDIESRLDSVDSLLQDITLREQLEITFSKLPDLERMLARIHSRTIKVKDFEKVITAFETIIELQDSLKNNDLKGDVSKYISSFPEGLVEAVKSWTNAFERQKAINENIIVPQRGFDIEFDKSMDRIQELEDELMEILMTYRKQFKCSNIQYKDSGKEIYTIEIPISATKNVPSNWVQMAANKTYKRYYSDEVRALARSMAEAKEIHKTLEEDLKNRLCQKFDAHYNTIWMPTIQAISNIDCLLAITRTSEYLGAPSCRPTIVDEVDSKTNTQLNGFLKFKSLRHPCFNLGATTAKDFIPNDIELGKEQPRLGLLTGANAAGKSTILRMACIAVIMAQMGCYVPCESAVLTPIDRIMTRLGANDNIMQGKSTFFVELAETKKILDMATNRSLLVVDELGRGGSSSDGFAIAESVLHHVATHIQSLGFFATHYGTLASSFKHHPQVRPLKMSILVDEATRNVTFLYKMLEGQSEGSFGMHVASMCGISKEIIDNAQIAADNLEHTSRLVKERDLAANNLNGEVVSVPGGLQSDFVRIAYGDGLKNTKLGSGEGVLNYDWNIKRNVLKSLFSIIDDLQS

binding result: binds
B1: wild-type S. cerevisiae Mlh1-Pms1 (complex)
chain 1: MSLRIKALDASVVNKIAAGEIIISPVNALKEMMENSIDANATMIDILVKEGGIKVLQITDNGSGINKADLPILCERFTTSKLQKFEDLSQIQTYGFRGEALASISHVARVTVTTKVKEDRCAWRVSYAEGKMLESPKPVAGKDGTTILVEDLFFNIPSRLRALRSHNDEYSKILDVVGRYAIHSKDIGFSCKKFGDSNYSLSVKPSYTVQDRIRTVFNKSVASNLITFHISKVEDLNLESVDGKVCNLNFISKKSISPIFFINNRLVTCDLLRRALNSVYSNYLPKGNRPFIYLGIVIDPAAVDVNVHPTKREVRFLSQDEIIEKIANQLHAELSAIDTSRTFKASSISTNKPESLIPFNDTIESDRNRKSLRQAQVVENSYTTANSQLRKAKRQENKLVRIDASQAKITSFLSSSQQFNFEGSSTKRQLSEPKVTNVSHSQEAEKLTLNESEQPRDANTINDNDLKDQPKKKQKLGDYKVPSIADDEKNALPISKDGYIRVPKERVNVNLTSIKKLREKVDDSIHRELTDIFANLNYVGVVDEERRLAAIQHDLKLFLIDYGSVCYELFYQIGLTDFANFGKINLQSTNVSDDIVLYNLLSEFDELNDDASKEKIISKIWDMSSMLNEYYSIELVNDGLDNDLKSVKLKSLPLLLKGYIPSLVKLPFFIYRLGKEVDWEDEQECLDGILREIALLYIPDMVPKVDTSDASLSEDEKAQFINRKEHISSLLEHVLFPCIKRRFLAPRHILKDVVEIANLPDLYKVFERC
chain 2: MTQIHQINDIDVHRITSGQVITDLTTAVKELVDNSIDANANQIEIIFKDYGLESIECSDNGDGIDPSNYEFLALKHYTSKIAKFQDVAKVQTLGFRGEALSSLCGIAKLSVITTTSPPKADKLEYDMVGHITSKTTTSRNKGTTVLVSQLFHNLPVRQKEFSKTFKRQFTKCLTVIQGYAIINAAIKFSVWNITPKGKKNLILSTMRNSSMRKNISSVFGAGGMRGLEEVDLVLDLNPFKNRMLGKYTDDPDFLDLDYKIRVKGYISQNSFGCGRNSKDRQFIYVNKRPVEYSTLLKCCNEVYKTFNNVQFPAVFLNLELPMSLIDVNVTPDKRVILLHNERAVIDIFKTTLSDYYNRQELALPKRMCSQSEQQAQKRLKTEVFDDRSTTHESDNENYHTARSESNQSNHAHFNSTTGVIDKSNGTELTSVMDGNYTNVTDVIGSECEVSVDSSVVLDEGNSSTPTKKLPSIKTDSQNLSDLNLNNFSNPEFQNITSPDKARSLEKVVEEPVYFDIDGEKFQEKAVLSQADGLVFVDNECHEHTNDCCHQERRGSTDTEQDDEADSIYAEIEPVEINVRTPLKNSRKSISKDNYRSLSDGLTHRKFEDEILEYNLSTKNFKEISKNGKQMSSIISKRKSEAQENIIKNKDELEDFEQGEKYLTLTVSKNDFKKMEVVGQFNLGFIIVTRKVDNKYDLFIVDQHASDEKYNFETLQAVTVFKSQKLIIPQPVELSVIDELVVLDNLPVFEKNGFKLKIDEEEEFGSRVKLLSLPTSKQTLFDLGDFNELIHLIKEDGGLRRDNIRCSKIRSMFAMRACRSSIMIGKPLNKKTMTRVVHNLSELDKPWNCPHGRPTMRHLMELRDWSSFSKDYEI

binding result: binds
B2: Mlh1-K54C-Pms1 mutant complex (complex, S. cerevisiae)
chain 1: B1 chain 1 with K54C
chain 2: B1 chain 2
